Reference: article PMC7614001
Each block holds one binder with its values, some of them ahead of it.

Assays:
[1] = biological target: T1, ALK2 ECD (Homo sapiens), Q04771; experiment: BLI; conditions: remark: other sources report otherwise
T1 chain: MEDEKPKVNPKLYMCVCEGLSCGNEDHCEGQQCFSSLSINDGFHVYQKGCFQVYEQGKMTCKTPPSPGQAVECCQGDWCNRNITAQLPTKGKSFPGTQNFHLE

[2] = biological target: T2, ALK3 ECD (Homo sapiens), P36894; experiment: BLI; conditions: remark: other sources report otherwise
T2 chain: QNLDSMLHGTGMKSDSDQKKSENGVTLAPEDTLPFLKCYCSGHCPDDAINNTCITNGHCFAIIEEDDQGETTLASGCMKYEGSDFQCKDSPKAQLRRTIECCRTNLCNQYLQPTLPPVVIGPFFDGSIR

Kd [1]: 18.4 nM
Kd [2]: 19 nM
B1: BMP-7, P18075 (protein)
chain: STGSKQRSQNRSKTPKNQEALRMANVAENSSSDQRQACKKHELYVSFRDLGWQDWIIAPEGYAAYYCEGECAFPLNSYMNATNHAIVQTLVHFINPETVPKPCCAPTQLNAISVLYFDDSSNVILKKYRNMVVRACGCH

Kd [1]: 133 nM
B2: BMP-9, Q9UK05 (protein)
chain: SAGAGSHCQKTSLRVNFEDIGWDSWIIAPKEYEAYECKGGCFFPLADDVTPTKHAIVQTLVHLKFPTKVGKACCVPTKLSPISVLYKDDMGVPTLKYHYEGMSVAECGCR
